Data: publication doi:10.1101/2025.03.14.642698

How the values were obtained:
[1] = target: Ldb16 (1-133 6A)-FLAG, genomically expressed (S. cerevisiae) (UniProt P25587); experiment: co-IP
[2] = target: Ldb16 (1-133 ΔH)-FLAG, genomically expressed (S. cerevisiae) (UniProt P25587); experiment: co-IP

Binder | Ldo co-immunoprecipitation compared to Ldb16 1-133 (% lower than 1-133) [1] | Ldo co-immunoprecipitation compared to Ldb16 1-133 (% lower than 1-133) [2]
Ldo16-HA, endogenously tagged (natural protein) MVSTATFFFFVYLTLFVVIGFFSSLFIIPLLGISFVFAIGVVSFGFCSNMSFKMAQLIYVRADAFLKKVLDKMALQTQPAQLQEPQEPLSTLRPVSNPTIPSPLRQTARPSKFVTEEDVIFEPVSAQSAIARSLETTANKAGNKFQLS | 50 | 50
Ldo45-HA, endogenously tagged (natural protein) MAARNRRKNNKKKSLLVTSAAQEKNATYVLVAEELHKKTIDLNMGTETPLTENHENPIPAKEFKHQQKLEPIDEHDDGEDELSIKFKSMTKSSGPITEAEVQKLLLSYAFTSAAIQEDENEKESRHYPIKPPSPSASSLSAYFQSFVEKCKQVFYNFSLQTVEKLNALQNSLYEVFWIIFIYLNYWFPNVGDYVSNTFGQQDSIIIRISLSKSHFRALREKSSQKVQQAVKNIYFCFQEKPYLTAFKVSFAIGLVIPCSLLFLIMVSTATFFFFVYLTLFVVIGFFSSLFIIPLLGISFVFAIGVVSFGFCSNMSFKMAQLIYVRADAFLKKVLDKMALQTQPAQLQEPQEPLSTLRPVSNPTIPSPLRQTARPSKFVTEEDVIFEPVSAQSAIARSLETTANKAGNKFQLS | 50 | 50
